Assay [1] deals with human breast cancer cells. The following applies: Singh D et al., 2000; Bigioni M. et al., 2005; cited from earlier work.
A further assay has as its target NK2 receptor (human) (UniProt P21452). The experiment in a line: cell-based or functional assay.

Positions of bridges follow the written chain, without caps; N, C: chain ends. Non-standard residues stand in square brackets, D forms with d. Residues, ends and D or L forms follow the SMILES beside them. *: point of attachment. NH(β-GlcNAc) = CC(=O)N[C@@H]1[C@@H](O)[C@H](O)[C@@H](CO)O[C@H]1N*; Dap = NC[C@H](N)C(=O)O

Sequence of UniProt P21452 (P21452 whole entry): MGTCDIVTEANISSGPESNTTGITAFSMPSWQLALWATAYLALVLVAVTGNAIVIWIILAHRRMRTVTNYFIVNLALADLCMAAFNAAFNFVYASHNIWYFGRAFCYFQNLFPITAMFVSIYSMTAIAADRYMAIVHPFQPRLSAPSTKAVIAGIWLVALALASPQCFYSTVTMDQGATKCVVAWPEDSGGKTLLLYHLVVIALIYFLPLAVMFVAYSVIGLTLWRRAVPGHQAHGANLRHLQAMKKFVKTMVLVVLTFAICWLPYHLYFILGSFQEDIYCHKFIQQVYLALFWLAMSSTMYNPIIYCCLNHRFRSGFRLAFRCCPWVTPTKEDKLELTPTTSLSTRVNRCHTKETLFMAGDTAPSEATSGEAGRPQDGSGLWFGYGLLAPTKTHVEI

Take `CC(=O)N[C@@H]1[C@@H](O)[C@H](O)[C@@H](CO)O[C@H]1NC(=O)C[C@@H]1NC(=O)[C@H](CC(C)C)NC(=O)[C@@H]2CNC(=O)C[C@H](NC1=O)C(=O)N[C@@H](Cc1c[nH]c3ccccc13)C(=O)N[C@@H](Cc1ccccc1)C(=O)N2` [MEN 11420, nepadutant] (cyclo(D(NH(β-GlcNAc))DWF[Dap]L); lactam 2-5): the Blocking cell proliferation entry in assay [1] is recorded as “efficacy in blocking cell proliferation”.
Turning to `Cc1ccc(CC(=O)N(C)[C@H](Cc2ccc3ccccc3c2)C(=O)N[C@@H]2CCCC[C@@H]2NC(=O)c2c[nH]c3ccccc23)cc1` [MEN 11467], the Blocking cell proliferation entry in assay [1] is given as “efficacy in blocking cell proliferation”.
Regarding “anti-NK2 antibody (Sigma-Aldrich, product number HPA012084)”, in the assay with NK2 receptor (human), the % of fibroblast cells with expression for MMP-3; anti-NK2 (1/100) and Substance P (1 µM) came to 0%; the % of fibroblast cells with expression for MMP-7; anti-NK2 (1/100) and Substance P (1 µM) was determined as 0%; the % of fibroblast cells with expression for MMP-9; anti-NK2 (1/100) and Substance P (1 µM) came to 0%; the % of fibroblast cells with expression for MMP-11; anti-NK2 (1/100) and Substance P (1 µM) was determined as 0%. In the assay with NK2 receptor (human), this molecule had a % of fibroblast cells with expression for MMP-13; anti-NK2 (1/100) and Substance P (1 µM) of 0%; a % of fibroblast cells with expression for MMP-14; anti-NK2 (1/100) and Substance P (1 µM) of 0%; a % of fibroblast cells with expression for SPARC; anti-NK2 (1/100) and Substance P (1 µM) of 0%; a % of fibroblast cells with expression for TGF-alpha; anti-NK2 (1/100) and Substance P (1 µM) of 0%. In the assay with NK2 receptor (human), this molecule yielded a % of fibroblast cells with expression for TGF-beta 1; anti-NK2 (1/100) and Substance P (1 µM) of 0%; a % of fibroblast cells with expression for TGF-beta 2; anti-NK2 (1/100) and Substance P (1 µM) of 0%; a % of fibroblast cells with expression for TGF-beta 3; anti-NK2 (1/100) and Substance P (1 µM) of 0%; a % of mononuclear cells with expression for NF-kB; anti-NK2 (1/100) and Substance P (1 µM) of 0%. Further, in the assay with NK2 receptor (human), the % of mononuclear cells with expression for TGF-beta; anti-NK2 (1/100) and Substance P (1 µM) turned out to be 0%; the % of polymorphonuclear cells with expression for NF-kB; anti-NK2 (1/100) was 0%; the % of polymorphonuclear cells with expression for TGF-beta; anti-NK2 (1/100) worked out at 0%.
Regarding `CC(=O)NC1(c2ccccc2)CCN(CC[C@H](CN(C)C(=O)c2ccccc2)c2ccc(Cl)c(Cl)c2)CC1` [SR 48968], in assay [1], the Blocking cell proliferation entry was “efficacy in blocking cell proliferation”.

Source of the values: patent US20130280259A1, “USE OF ANTIBODIES AGAINST NK1, NK2 AND/OR NK3 RECEPTORS IN CANCER TREATMENT” (SERVICIO ANDALUZ DE SALUD, priority 2010, published 2013).
